B1: phage-displayed peptide V5 (M13 phage clone) (peptide)
chain: ILDNYKL
notes: not shown: M13 phage coat protein of the Ph.D.-7 library
B2: phage-displayed peptide V3 (M13 phage clone) (peptide)
chain: ANLFKAK
notes: as for B1
B3: phage-displayed peptide V7 (M13 phage clone) (peptide)
chain: YAIMPLV
notes: as for B1
B4: phage-displayed peptide V2 (M13 phage clone) (peptide)
chain: NPRALNY
notes: as for B1
B5: phage-displayed peptide V4 (M13 phage clone) (peptide)
chain: YHSSFQA
notes: as for B1
B6: phage-displayed peptide V6 (M13 phage clone) (peptide)
chain: LPPNPTK
notes: as for B1
B7: phage-displayed peptide K2 (M13 phage clone) (peptide)
chain: WPTPPYA
notes: as for B1
B8: phage-displayed peptide K1 (M13 phage clone) (peptide)
chain: YLTMPTP
notes: as for B1
B9: phage-displayed peptide K4 (M13 phage clone) (peptide)
chain: SLPAHAR
notes: as for B1
B10: phage-displayed peptide K7 (M13 phage clone) (peptide)
chain: ALQPRYL
notes: as for B1
B11: phage-displayed peptide K5 (M13 phage clone) (peptide)
chain: HSSLQTP
notes: as for B1
B12: phage-displayed peptide K6 (M13 phage clone) (peptide)
chain: YSIPKSS
notes: as for B1
B13: phage-displayed peptide K3 (M13 phage clone) (peptide)
chain: TPHNTVS
notes: as for B1
B14: V1 analogue A11 (the 6 amino acids upstream to arginine substituted by alanine) (peptide)
peptide: AAAAAAR
notes: position 1 is already alanine
B15: V1 analogue A2 (peptide)
peptide: AAWLPPR
notes: Ala scan analogue of ATWLPPR (V1)
B16: V1 analogue A3 (peptide)
peptide: ATALPPR
notes: as for B15
B17: V1 analogue A4 (peptide)
peptide: ATWAPPR
notes: as for B15
B18: V1 analogue A6 (peptide)
peptide: ATWLPAR
notes: as for B15
B19: V1 analogue A5 (peptide)
peptide: ATWLAPR
notes: as for B15
B20: synthetic peptide V1 (ATWLPPR) (peptide)
peptide: ATWLPPR
notes: Synthetic peptide (Neosystem); also called V1 peptide
B21: synthetic peptide K4 (SLPAHAR) (peptide)
peptide: SLPAHAR
notes: Synthetic peptide (Neosystem)

biological target: T1, KDR (kinase domain receptor, VEGFR-2) expressed on cells (UniProt P35968 20-1356, limits assumed); assay: phage ELISA on fixed CHO-KDR cells
T1 construct: whole, on cells; The same molecule is used for KDR on CHO-KDR cells and for VEGF-R2 on HUV-EC cells; the cells are named under assay; also called KDR/Flk-1; VR2
T1 sequence (P35968 20-1356 limits assumed): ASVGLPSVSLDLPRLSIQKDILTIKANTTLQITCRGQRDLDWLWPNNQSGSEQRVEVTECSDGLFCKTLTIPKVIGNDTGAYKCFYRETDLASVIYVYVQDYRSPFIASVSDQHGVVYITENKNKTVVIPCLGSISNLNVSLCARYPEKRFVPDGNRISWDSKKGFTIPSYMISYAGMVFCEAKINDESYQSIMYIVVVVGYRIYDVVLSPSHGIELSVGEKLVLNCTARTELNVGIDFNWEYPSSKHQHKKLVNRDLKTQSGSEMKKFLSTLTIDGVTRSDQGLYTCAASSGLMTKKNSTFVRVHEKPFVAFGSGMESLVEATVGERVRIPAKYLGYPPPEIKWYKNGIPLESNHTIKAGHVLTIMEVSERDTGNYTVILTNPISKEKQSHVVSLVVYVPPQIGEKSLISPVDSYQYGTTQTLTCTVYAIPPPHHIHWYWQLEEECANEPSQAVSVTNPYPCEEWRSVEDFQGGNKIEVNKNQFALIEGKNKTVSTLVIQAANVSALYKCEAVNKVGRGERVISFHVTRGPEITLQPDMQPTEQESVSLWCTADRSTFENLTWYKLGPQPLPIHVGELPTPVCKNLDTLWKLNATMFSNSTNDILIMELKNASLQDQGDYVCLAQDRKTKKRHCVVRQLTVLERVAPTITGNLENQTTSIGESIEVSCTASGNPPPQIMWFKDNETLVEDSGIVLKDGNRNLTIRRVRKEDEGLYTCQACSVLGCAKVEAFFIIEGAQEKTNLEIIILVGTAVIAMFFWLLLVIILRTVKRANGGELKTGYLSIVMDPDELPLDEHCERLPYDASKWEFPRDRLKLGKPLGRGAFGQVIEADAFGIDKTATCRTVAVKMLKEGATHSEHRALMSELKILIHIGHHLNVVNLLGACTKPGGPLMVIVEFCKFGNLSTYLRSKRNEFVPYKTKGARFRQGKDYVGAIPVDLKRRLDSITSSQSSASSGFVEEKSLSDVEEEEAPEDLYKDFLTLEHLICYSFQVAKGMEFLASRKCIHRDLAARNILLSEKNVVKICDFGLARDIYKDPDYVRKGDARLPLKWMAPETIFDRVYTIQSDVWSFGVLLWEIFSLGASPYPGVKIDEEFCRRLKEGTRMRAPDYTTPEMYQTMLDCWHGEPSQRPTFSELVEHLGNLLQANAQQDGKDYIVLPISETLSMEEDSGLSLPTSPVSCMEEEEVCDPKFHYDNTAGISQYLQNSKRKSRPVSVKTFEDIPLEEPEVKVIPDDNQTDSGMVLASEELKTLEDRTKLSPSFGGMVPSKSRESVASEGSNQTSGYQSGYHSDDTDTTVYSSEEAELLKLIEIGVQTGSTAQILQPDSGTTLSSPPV
Protocol: (§1) Exponentially growing CHO-KDR cells were seeded in 96-well microtiter plates at 7×10⁴ cells/well and left overnight at 37 C. Cells were fixed with paraformaldehyde (4% in PBS) for 15 min at room temperature and washed with PBS. Wells were then filled with PBS-Glycine 0.2%, kept for 15 min at room temperature and then washed with PBS. Phage particles (10¹² or 10¹³/ml) were added to each well and incubated 2 h at room temperature. Wells were washed with PBS and the amount of bound phage was detected with peroxidase-conjugated anti-M13 phage serum (Pharmacia Biotech, Uppsala, Sweden).

Row | Binder | binding result
1 | B1 | binds
2 | B2 | binds
3 | B3 | binds
4 | B4 | binds
5 | B5 | binds
6 | B6 | binds

biological target: T1, KDR (kinase domain receptor, VEGFR-2) …; assay: phage ELISA on CHO-KDR cells, 10^13 pfu/ml
Protocol: Results are representative of three independent assays.
as §1

Row | Binder | binding result
7 | B7 | binds
8 | B8 | binds
9 | B9 | binds
10 | B10 | binds
11 | B11 | binds
12 | B12 | binds
13 | B13 | binds

biological target: T1, KDR (kinase domain receptor, VEGFR-2) …; assay: displacement of 125I-VEGF165 from CHO-KDR cells

Row | Binder | factor by which the inhibitory efficiency is lowered against V1 [fold]
14 | B14 | 10

biological target: T1, KDR (kinase domain receptor, VEGFR-2) …; assay: displacement of 125I-VEGF165 from CHO-KDR cells; remark: another data set of the same source

Row | Binder | Efficiency (% Emax)
15 | B15 | 61
16 | B16 | 70
17 | B17 | 31
18 | B18 | 84
19 | B19 | 65
20 | B20 | 100

biological target: T1, KDR (kinase domain receptor, VEGFR-2) …; assay: competition with 125I-VEGF for binding to CHO-KDR cells
Protocol: (§2) Competition assay of binding to CHO-KDR cells. CHO-KDR cells were seeded in 24-well plates at a density of 5×10⁵ cells/well. After 24 h, subconfluent plates were transferred at 4 C, and all subsequent operations were done at 4 C. […] After 3 h, cells were washed five times with binding buffer and solubilized by the addition of 0.5 M NaOH.

Row | Binder | IC50 [µM]
21 | B20 | ~80

biological target: T1, KDR (kinase domain receptor, VEGFR-2) …; assay: displacement of 125I-VEGF165 from CHO-KDR cells, curve fitting (CI50)

Row | Binder | IC50 [µM]
22 | B15 | 30.9
23 | B16 | 26.8
24 | B17 | 60.7
25 | B18 | 22.4
26 | B19 | 29.1
27 | B20 | 18.8

biological target: T2, neuropilin 1 (UniProt O14786 22-923, limits assumed); assay: displacement of 125I-VEGF165 from MDA-MB 231 cells (neuropilin 1, no VEGF-R2)
T2 construct: whole, on cells; also called NP 1; NP1
T2 sequence (O14786 22-923 limits assumed): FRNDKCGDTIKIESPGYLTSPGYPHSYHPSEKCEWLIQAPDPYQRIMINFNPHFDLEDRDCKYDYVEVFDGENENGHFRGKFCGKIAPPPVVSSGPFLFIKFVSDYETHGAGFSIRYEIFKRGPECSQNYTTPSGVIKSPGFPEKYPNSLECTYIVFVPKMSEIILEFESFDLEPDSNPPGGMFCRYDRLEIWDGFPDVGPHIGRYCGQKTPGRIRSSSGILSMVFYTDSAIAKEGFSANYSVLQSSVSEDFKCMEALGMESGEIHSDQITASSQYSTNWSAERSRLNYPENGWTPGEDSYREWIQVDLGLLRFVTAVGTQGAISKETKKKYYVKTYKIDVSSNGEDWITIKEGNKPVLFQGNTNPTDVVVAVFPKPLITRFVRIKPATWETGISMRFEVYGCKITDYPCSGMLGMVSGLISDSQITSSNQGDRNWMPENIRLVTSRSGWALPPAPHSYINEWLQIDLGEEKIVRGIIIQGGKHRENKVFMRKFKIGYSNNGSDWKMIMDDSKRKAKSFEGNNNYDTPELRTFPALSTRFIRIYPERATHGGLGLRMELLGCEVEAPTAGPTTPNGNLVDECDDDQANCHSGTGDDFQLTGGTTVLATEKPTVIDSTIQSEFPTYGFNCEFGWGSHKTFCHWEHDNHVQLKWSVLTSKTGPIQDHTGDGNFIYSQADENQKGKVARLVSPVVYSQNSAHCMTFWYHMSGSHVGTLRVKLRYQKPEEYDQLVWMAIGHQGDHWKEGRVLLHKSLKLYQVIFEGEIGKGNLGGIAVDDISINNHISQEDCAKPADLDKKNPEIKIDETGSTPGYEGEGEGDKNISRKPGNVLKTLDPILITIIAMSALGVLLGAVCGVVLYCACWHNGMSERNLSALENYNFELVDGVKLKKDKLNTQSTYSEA

Row | Binder | IC50 [µg/mL]
28 | B20 | 38

biological target: T1, KDR (kinase domain receptor, VEGFR-2) …; assay: competition with 125I-VEGF for binding to CHO-KDR cells, fixed peptide concentration
Protocol: as §2

Row | Binder | binding result
29 | B21 | binds

From patent US20030171289A1 (INSTITUT PASTEUR, published 2003)
